In patent publication US20260227403A1 (HENRY M JACKSON FOUNDATION FOR THE ADVANCEMENT OF MILITARY …, published 2026):

How the values were obtained:
[1] = biological target: T1, P20 (alanine substituted, FIG. 3 panel E); experiment: ELISA: 500 ng peptide coated per well, 29E4 at 40 ng/mL, HRP goat anti-rabbit Ig 1:16,000, ABS 450 nm, duplicates [CONT. 2]
T1 construct: also called E230 to alanine
Description: (§1) HRP Goat anti-rabbit Ig was applied at 1:16,000 dilution in all reactions.
(§2) Peptides were synthesized to achieve ≥70% HPLC purity by a commercial vendor (GenScript Biotech, Piscataway, NJ). Peptides were reconstituted in either water, or with addition of acetonitrile, methanol, 10% acetic acid, or DMSO, depending on the overall charge of each peptide. Key residues required for mAb binding were probed by ELISA using overlapping peptides, truncated peptides and alanine substituted peptides. Reactions were performed in duplicate using NUNC 96-well flatbottom MaxiSorp plates (Thermo Scientific). After coating each well with 500 ng of peptide in 100 μL coating buffer (50 mM NaHCO₃, pH 9.6), the plates were sealed and incubated at 4° C. overnight. […] Plates were then washed once with wash buffer, incubated with 100 μL mAb 29E4 (serially diluted from 1 mg/mL) for 1 hour at 37° C. Plates were further washed four times with wash buffer, and then incubated at 37° C. with 100 μL of a horse radish peroxidase (HRP)-conjugated secondary antibody against the primary antibody, diluted 1:16,000 according to manufacturer's protocols (KPL, Inc., Gaithersburg, MD). After washing four times with wash buffer, 100 μL of K-Blue Aqueous TMB substrate (Neogen, Lexington, KY) was added to the plates and incubated uncovered for 30 minutes at room temperature. To stop the reaction, 100 μL of 2 N Sulphuric acid was added to each well and absorbance were measured immediately at 450 nm. All dilutions of reagents were performed in ELISA diluent (20% NGS in 1×PBS with 0.1% Triton-X 100).

[2] = biological target: T2, P15 (alanine substituted, FIG. 3 panel E); experiment: as above
T2 construct: also called Q225 to alanine
T2 sequence (peptide, as listed by the source): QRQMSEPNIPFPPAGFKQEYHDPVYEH
Description: as §1, §2

[3] = biological target: T3, P27 (alanine substituted, FIG. 3 panel E); experiment: as above
T3 construct: also called E237 to alanine
T3 sequence (peptide, as listed by the source): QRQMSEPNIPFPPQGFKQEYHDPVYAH
Description: as §1, §2

[4] = biological target: T4, P35; experiment: ELISA: 1 µg peptide coated per well, 29E4 at 20 ng/mL, HRP goat anti-rabbit Ig 1:16,000, ABS 450 nm, duplicates [CONT. 1]
T4 construct: C-terminal truncation of P1
T4 peptide: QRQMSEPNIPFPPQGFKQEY

[5] = biological target: T5, P42; experiment: as above
T5 construct: N-terminal truncation of P1
T5 peptide: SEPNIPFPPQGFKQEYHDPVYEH

[6] = biological target: T6, P32; experiment: as above
T6 construct: C-terminal truncation of P1
T6 peptide: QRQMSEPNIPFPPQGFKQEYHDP

[7] = biological target: T7, P39; experiment: as above
T7 construct: N-terminal truncation of P1

[8] = biological target: T8, P30; experiment: as above
T8 construct: C-terminal truncation of P1

[9] = biological target: T9, P37; experiment: as above
T9 construct: C-terminal truncation of P1
T9 peptide: QRQMSEPNIPFPPQGFKQ

[10] = biological target: T10, P50; experiment: as above
T10 construct: C-terminal truncation of P1
T10 peptide: QRQMSEPNIPFPP

[11] = biological target: T11, P33; experiment: as above
T11 construct: C-terminal truncation of P1
T11 peptide: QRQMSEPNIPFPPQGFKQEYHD

[12] = biological target: T12, P41; experiment: as above
T12 construct: N-terminal truncation of P1
T12 peptide: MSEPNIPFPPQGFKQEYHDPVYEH

[13] = biological target: T13, peptide P40 (…) (human); experiment: as above
T13 construct: N-terminal truncation of the immunogenic peptide P1

[14] = biological target: T14, P49; experiment: as above
T14 construct: C-terminal truncation of P1
T14 peptide: QRQMSEPNIPFPPQ

[15] = biological target: T15, P29; experiment: as above
T15 construct: C-terminal truncation of P1

[16] = biological target: T16, P48; experiment: as above
T16 construct: C-terminal truncation of P1
T16 peptide: QRQMSEPNIPFPPQG

[17] = biological target: T17, P34; experiment: as above
T17 construct: C-terminal truncation of P1
T17 peptide: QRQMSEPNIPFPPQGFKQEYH

Measured: binding result

T1 sequence (peptide, as listed by the source): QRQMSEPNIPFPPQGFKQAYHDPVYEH

B1: ETV1 rabbit monoclonal antibody (29E4) (antibody, V domains shown)
VH: QELEESGGDLVKPGASLTLTCTASGFFFSAENHICWVRQAPGKGLEWIGCVYIGSYVGGSGDPYYASWAKGRFTISKTSSTTVTLQMSSLTAADTATYFCARDLGSLWGPGTLVTVSS
VL: DVVMTQTASSVSAAVGGTVTIACQSSQSVYDNNNLAWFQQKPGQPPKRLIYSASTLASGVSSRFKGSGYGTQFTLTISDVQCDDAATYYCVGAFSGYIFVFGGGTEVVVK
notes: constant regions are not; also called 29E4 mAb; ETV1 29E4 mAb
binds: [1] | [2] | [3] | [4] | [5] | [6] | [7] | [8] | [9] | [10] | [11] | [12] | [13] | [14] | [15] | [16] | [17]
